Data on 1 protein can be found in publication PMC4973843, “Dimeric chlorite dismutase from the nitrogen‐fixing cyanobacterium C yanothece sp. PCC7425” (Molecular Microbiology, 2015).

Substrate in the series: [O-][Cl+]O
The series is described as follows: Clark-type oxygen electrode, O2 release. In kind it is biochemical, Cyanothece sp. PCC 7425. Conditions: 50 mM citrate phosphate pH 5.0, 30°C.

B1: CCld (chlorite dismutase from Cyanothece sp. PCC7425) (Cyanothece sp. PCC 7425) (protein)
chain: NNRYSFIGGRTGQWQVVKIRNVLGPGLQLVEKVNILNGAVAEIPLDSAWRLQGFASNIRYAIRTELEALQAVQPMLNRAEAILAVLIPIKKSAQWWEMAQDERRDIFERESHHTAVGLEYLPGVARRLLHCRDLGEEFDFLTWFEFAPEHSSAFNELLLRMRASKEWEYVEREVEVWLKRL
notes: heme b
B1: the Km turned out to be 162 ± 10.0 µM and the kcat was 1144 ± 23.8 s⁻¹.
